{"source": "patent US20100159011A1", "about": "“Compositions For Biomedical Applications” (University of Massachusetts Medical School, priority 2007, published 2010)", "test_system": "murine macrophage RAW264.7 cells", "experiment": "Osteoclastic differentiation of RAW264.7 cells (TRAP stain)", "type": "cell-based", "settings": "for osteoclast differentiation of RAW264.7 (TRAP): no graft carrier", "procedure": "Grafts (5×5×1 mm, FlexBone 25% HA-25% TCP) were pre-absorbed with varying amounts of growth factors and cytokines to provide an exogenous supply for remodeling. […] The preferred loading dose of RANKL (10 ng/FlexBone graft) was determined by the osteoclastic differentiation of macrophage RAW264.7, induced by the RANKL released from the graft as indicated by positive TRAP stains (purple) of multinucleated cells on Day 6. […] Finally, the preferred loading dose of rhVEGF165 in stimulating the proliferation of human vascular endothelial cells in culture was determined to be 5 ng/graft.\nOsteoclastic differentiation of murine macrophage RAW264.7 cells induced by the rmRANKL released from FlexBone. The bioactivity of the exogenous rmRANKL released from FlexBone is evaluated by its ability to induce osteoclastic differentiation of murine macrophage RAW264.7 cells six days after placing the FlexBone graft pre-loaded with rnRANKL in the RAW264.7 culture. RAW264.7 cells were seeded at 10,000/cm^2 in a 24-well plate in alpha-MEM (0.5 mL/well) supplemented with 10% FBS and 1% Pen-Strep, and allowed to attach overnight. One FlexBone or pHEMA graft freshly loaded with 10-ng rmRANKL was then added to each well (N=3 for each combination) on day one, and the culture was continued for 6 days with media change every two days without additional supplement of rmRANKL. In the positive control well, 10 ng rmRANKL was supplemented directly in the culture media without a graft carrier every two days. In the negative control well, 10 ng rmRANKL was supplemented directly in the culture media without a graft carrier on day one, and the medium was changed every two days without any additional supplement of rmRANKL. […] Grafts were removed from all wells before the cells were stained for tartrate-resistant acid phosphatase (TRAP) activities using the Sigma TRAP kit following the manufacturer's instructions."}
{"molecule": "rmRANKL: recombinant receptor activator of nuclear factor κ ligand, purchased from R&D Systems (protein, UniProt O35235 139-316, looked up) Tumor necrosis factor ligand …: FSGAPAMMEGSWLDVAQRGKPEAQPFAHLTINAASIPSGSHKVTLSSWYHDRGWAKISNMTLSNGKLRVNQDGFYYLYANICFRHHETSGSVPTDYLQLMVYVVKTSIKIPSSHNLMKGGSTKNWSGNSEFHFYSINVGGFFKLRAGEEISIQVSNPSLLDPDQDATYFGAFKVQDID", "values": [{"measurement": "osteoclast differentiation of RAW264.7 (TRAP)", "setting": "continued supplement of 10-ng every other day, day six", "value": "led to the formation of TRAP-positive multinucleated osteoclasts by day six"}, {"measurement": "preferred loading dose", "setting": "determined by osteoclastic differentiation of RAW264.7, TRAP stains on Day 6", "value": 10, "unit": "ng/FlexBone graft"}, {"measurement": "supplement needed every other day to induce differentiation", "setting": "no graft control", "value": 5, "unit": "ng"}, {"measurement": "osteoclast differentiation of RAW264.7 (TRAP)", "setting": "single supplement of 10-ng directly to the culture", "value": "not sufficient in inducing the osteoclast differentiation"}]}
